Data taken from patent US20100151492A1.

Legend:
[1] = molecular target: human PD-1 (human) (UniProt Q15116); experiment: cell-based or functional assay
[2] = molecular target: human PD-L1 (human) (UniProt Q9NZQ7); experiment: cell-based or functional assay
Sequence of UniProt Q9NZQ7 (Q9NZQ7 19-290 limits assumed): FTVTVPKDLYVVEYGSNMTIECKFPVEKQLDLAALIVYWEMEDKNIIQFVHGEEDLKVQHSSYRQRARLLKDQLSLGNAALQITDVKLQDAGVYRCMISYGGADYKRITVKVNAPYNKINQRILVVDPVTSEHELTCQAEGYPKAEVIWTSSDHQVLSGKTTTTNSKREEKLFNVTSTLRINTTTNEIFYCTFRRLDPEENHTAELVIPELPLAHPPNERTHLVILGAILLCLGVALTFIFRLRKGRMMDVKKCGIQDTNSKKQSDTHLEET

Sequence of UniProt Q15116 (Q15116 other isoform, or with tags, fused parts or gaps limits assumed): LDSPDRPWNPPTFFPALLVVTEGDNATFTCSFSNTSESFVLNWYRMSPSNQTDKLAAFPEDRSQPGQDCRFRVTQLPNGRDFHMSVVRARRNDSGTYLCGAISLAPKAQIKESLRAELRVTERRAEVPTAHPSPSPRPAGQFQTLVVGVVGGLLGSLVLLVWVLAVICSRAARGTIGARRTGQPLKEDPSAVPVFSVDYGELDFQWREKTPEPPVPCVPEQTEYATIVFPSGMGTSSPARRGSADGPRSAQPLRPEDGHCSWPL

| expansion of HCV-specific T cells (frequency of CFSE low tetramer labeled CD8+ T cells after 6 days) [1] | expansion of HCV-specific T cells (frequency of CFSE low tetramer labeled CD8+ T cells after 6 days) [2] | fold increase in tetramer+ cells (6-day CFSE proliferation of B*4201 TL9-specific CD8+ T cells) [2] | fold increase in the frequency of EBV or CMV-specific CD8 T cells (6-day CFSE proliferation) [2] | percentage of B*4201 TL9-specific CD8+ T cells after 6-day stimulation with peptide [2] | Substance |
| --- | --- | --- | --- | --- | --- |
| 4 fold |  |  |  |  | Monoclonal antibody to human PD-1 (EH12, mouse IgG1) |
|  | 4 fold | 10.3 fold | < 3.5 fold | 12.4% | Monoclonal antibody to human PD-L1 (29E.2A3, mouse IgG2b) |
